Experimental findings from paper PMC10639050, “ZNF432 stimulates PARylation and inhibits DNA resection to balance PARPi sensitivity and resistance” are described below.

One data set addresses ZNF432 full-length (Homo sapiens, UniProt O94892 1-652). Put plainly: EMSA; no fixation, 1 mM CaCl2; 100 nM DNA stated, protein 1-6 nM; 25 mM MOPS pH 7.0, 60 mM KCl, 0.2% Tween, 2 mM DTT, CaCl2 (40 nM as printed with glutaraldehyde fixation; 1 mM without fixation for Kd), 37 C 30 min; 8% TBE acr. Conditions: protein: recombinant; tags: C-terminal 10xHis (GST removed with PreScission); label: 32P (gamma-32P); single strand.

For a further data set, the target named is ZNF432 KRAB domain (Homo sapiens, UniProt O94892 1-205). Put plainly: EMSA; negligible binding; 1-6 nM protein, no fixation; 25 mM MOPS pH 7.0, 60 mM KCl, 0.2% Tween, 2 mM DTT, CaCl2 (40 nM as printed with glutaraldehyde fixation; 1 mM without fixation for Kd), 37 C 30 min; 8% TBE acr. The settings on record: protein: recombinant; tags: His (GST removed with PreScission); label: 32P (gamma-32P); single strand. (A gel shift assay detects complexes by their altered migration in electrophoresis.)
ZNF432 KRAB domain, sequence (O94892 1-205): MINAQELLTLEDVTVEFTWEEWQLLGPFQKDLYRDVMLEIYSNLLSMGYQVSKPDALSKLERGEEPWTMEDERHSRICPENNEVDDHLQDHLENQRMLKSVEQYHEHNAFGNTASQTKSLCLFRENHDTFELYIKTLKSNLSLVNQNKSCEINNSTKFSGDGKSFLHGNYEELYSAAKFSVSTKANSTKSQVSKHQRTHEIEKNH

ZNF432 full-length, sequence (O94892 whole entry): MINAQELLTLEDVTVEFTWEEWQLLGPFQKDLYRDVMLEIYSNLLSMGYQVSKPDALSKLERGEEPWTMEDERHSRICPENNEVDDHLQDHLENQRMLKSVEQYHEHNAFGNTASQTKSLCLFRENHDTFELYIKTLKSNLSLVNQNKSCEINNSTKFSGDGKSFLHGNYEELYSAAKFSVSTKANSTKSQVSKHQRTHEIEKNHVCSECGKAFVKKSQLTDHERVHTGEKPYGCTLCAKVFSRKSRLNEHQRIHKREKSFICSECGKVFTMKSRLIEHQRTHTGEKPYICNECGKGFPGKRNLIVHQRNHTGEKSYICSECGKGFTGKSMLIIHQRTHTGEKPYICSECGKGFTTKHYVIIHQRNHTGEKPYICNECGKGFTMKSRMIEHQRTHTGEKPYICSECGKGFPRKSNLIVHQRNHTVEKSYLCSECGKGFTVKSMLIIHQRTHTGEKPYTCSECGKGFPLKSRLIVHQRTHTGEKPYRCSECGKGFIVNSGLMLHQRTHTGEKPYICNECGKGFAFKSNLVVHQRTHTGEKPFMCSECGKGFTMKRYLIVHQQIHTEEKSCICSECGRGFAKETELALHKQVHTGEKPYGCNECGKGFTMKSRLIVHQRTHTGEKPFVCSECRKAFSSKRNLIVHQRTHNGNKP

B1: Single-stranded DNA (ssDNA)
DNA: GGGCGAATTGGGCCCGACGTCGCATGCTCCTCTAGACTCGAGGAATTCGGTACCCCGGGTTCGAAATCGATAAGCTTACAGTCTCCATTTAAAGGACAAG
Broadly, the Kd is the equilibrium constant for the complex coming apart. As for B1, the dissociation constant Kd with ZNF432 full-length is 5.41 nM. The binding result with ZNF432 KRAB domain is “no binding”.
